From paper PMC7761795 (Biochemistry, 2020)

B1: UBE2D1 (enzyme)
chain: not shown
B2: UBE2E1 (enzyme, human, UniProt P51965 1-193, looked up)
chain: MSDDDSRASTSSSSSSSSNQQTEKETNTPKKKESKVSMSKNSKLLSTSAKRIQKELADITLDPPPNCSAGPKGDNIYEWRSTILGPPGSVYEGGVFFLDITFTPEYPFKPPKVTFRTRIYHCNINSQGVICLDILKDNWSPALTISKVLLSICSLLTDCNPADPLVGSIATQYMTNRAEHDRMARQWTKRYAT
B3: UBE2N (enzyme, human, UniProt P61088 1-152, looked up)
chain: MAGLPRRIIKETQRLLAEPVPGIKAEPDESNARYFHVVIAGPQDSPFEGGTFKLELFLPEEYPMAAPKVRFMTKIYHPNVDKLGRICLDILKDKWSPALQIRTVLLSIQALLSAPNPDDPLANDVAEQWKTNEAQAIETARAWTRLYAMNNI

Experiments:
OTUB1 wild-type = OTUB1 wild-type (human (by the printed UniProt accession), UniProt Q96FW1 1-271); test: ITC
OTUB1 (C91S) = OTUB1 (C91S) (human (by the printed UniProt accession), UniProt Q96FW1 1-271, C91S); test: ITC
OTUB1 (C91S), sequence (Q96FW1 whole entry C91S): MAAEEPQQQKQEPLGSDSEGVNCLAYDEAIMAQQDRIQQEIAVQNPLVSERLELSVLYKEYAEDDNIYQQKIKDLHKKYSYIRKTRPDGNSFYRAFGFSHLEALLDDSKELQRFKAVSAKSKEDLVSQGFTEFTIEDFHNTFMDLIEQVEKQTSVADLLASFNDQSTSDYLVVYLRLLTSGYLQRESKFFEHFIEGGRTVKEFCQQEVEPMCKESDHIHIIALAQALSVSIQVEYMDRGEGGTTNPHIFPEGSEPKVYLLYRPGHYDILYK

OTUB1 wild-type, sequence (Q96FW1 whole entry): as the sequence (Q96FW1 whole entry C91S) above, with S91C counted along it

Row | Binder | binding result (OTUB1 wild-type) | binding result (OTUB1 (C91S)) | Kd (OTUB1 (C91S))
1 | B1 | binds | binds | 
2 | B2 |  | binds | 
3 | B3 |  |  | 8.1 µM
